Test [1] has as its target T1, human Siglec-4a-his protein (Acrobiosystems, Cat MAG-H52H8) (human, UniProt P20916 20-516).
T1 construct: Bought protein; not shown: his tag
T1 sequence (looked up): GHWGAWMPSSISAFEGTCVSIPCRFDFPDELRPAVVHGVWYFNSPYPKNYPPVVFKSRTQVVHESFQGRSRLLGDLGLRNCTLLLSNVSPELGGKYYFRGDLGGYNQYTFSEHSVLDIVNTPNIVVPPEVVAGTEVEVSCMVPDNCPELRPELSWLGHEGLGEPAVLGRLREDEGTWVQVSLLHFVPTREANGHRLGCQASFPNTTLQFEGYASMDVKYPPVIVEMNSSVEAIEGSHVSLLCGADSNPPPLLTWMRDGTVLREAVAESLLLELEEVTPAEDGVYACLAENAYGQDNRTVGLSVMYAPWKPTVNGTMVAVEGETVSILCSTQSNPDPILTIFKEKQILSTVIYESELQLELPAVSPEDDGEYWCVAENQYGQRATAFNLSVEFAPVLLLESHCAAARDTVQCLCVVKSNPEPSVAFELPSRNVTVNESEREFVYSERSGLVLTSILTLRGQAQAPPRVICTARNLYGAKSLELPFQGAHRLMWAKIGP
The test can be described thus: ELISA on coated human Siglec-4a-his, antibody at 100 nM and 10 nM, goat anti-human IgG-HRP, OD450. The method, then:
Human Siglec-15 ECD-his protein (Acrobiosystems, Cat SG5-H52H3), human Siglec-2-his protein (Acrobiosystems, Cat CD2-H52H8), human Siglec-4a-his protein (Acrobiosystems, Cat MAG-H52H8), human Siglec-3-his protein (Acrobiosystems, Cat CD3-H5226), human Siglec-10-his protein (Acrobiosystems, Cat SIO-H52H9), and human PD-L1/B7-H1-his protein (Acrobiosystems, Cat PD1-H5229), each at 1 μg/mL and dissolved in PBS, were each added to an ELISA plate at 100 μL/well for coating and the plate was incubated overnight at 4° C. The ELISA plate was then blocked with PBST (PBS+0.05% Tween 20) containing 2% BSA at 200 μL/well and incubated at 37° C. for 1 h. The ELISA plate was washed 4 times with PBST. The anti-Siglec-15 antibody diluted in a gradient (concentrations: 100 nM and 10 nM) was added to the ELISA plate at 100 μL/well and the plate was incubated at 37° C. for 1 h. The ELISA plate was washed 4 times with PBST. The goat anti-human IgG (H+L)-HRP (1:5000, Jackson, Cat 109-035-088) was added at 100 μL/well and the plate was incubated at 37° C. for 1 h. The ELISA plate was washed 4 times with PBST. The TMB substrate (Biopanda, Cat TMB-S-003) was added at 100 μL/well, and the plate was incubated at room temperature for 5 min, and then the stop buffer (Solarbio, Cat #: C1058) was added at 100 μL/well to stop the reaction.
(In an ELISA, binding on a coated surface is turned into a signal by an enzyme label.)

The target of test [2] is T2, cynomolgus monkey Siglec-15-his protein (Acrobiosystems, Cat #: SG5-C52H6) (cynomolgus monkey, UniProt Q6ZMC9 20-263 (human entry)).
T2 construct: Bought protein; also called cynomolgus monkey Siglec-15 protein; not shown: his tag
T2 chain: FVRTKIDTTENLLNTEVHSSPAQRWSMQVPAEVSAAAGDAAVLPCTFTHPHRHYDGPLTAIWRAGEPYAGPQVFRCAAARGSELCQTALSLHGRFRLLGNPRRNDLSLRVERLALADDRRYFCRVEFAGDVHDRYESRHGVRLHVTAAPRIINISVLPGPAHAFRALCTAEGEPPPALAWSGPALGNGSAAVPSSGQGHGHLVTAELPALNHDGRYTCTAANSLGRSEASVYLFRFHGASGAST
The test can be described thus: ELISA, coated cynomolgus monkey Siglec-15-his. As to the method:
(§1) 1 g/mL cynomolgus monkey Siglec-15-his protein (Acrobiosystems, Cat #: SG5-C52H6) dissolved in PBS was added to an ELISA plate at 100 μL/well for coating and the plate was incubated overnight at 4° C. The ELISA plate was then blocked with PBST (PBS+0.05% Tween 20) containing 2% BSA at 200 μL/well and incubated at 37° C. for 1 h. The ELISA plate was washed 4 times with PBST. The anti-Siglec-15 antibody diluted in a gradient (5-fold dilution, starting concentration: 6.67 nM) was added to the ELISA plate at 100 µL/well and the plate was incubated at 37° C. for 1 h. The ELISA plate was washed 4 times with PBST. The goat anti-human IgG (H+L)-HRP (1:5000, Jackson, Cat #: 109-035-088) was added at 100 μL/well and the plate was incubated at 37° C. for 1 h. The ELISA plate was washed 4 times with PBST. The TMB substrate (Biopanda, Cat #: TMB-S-003) was added at 100 μL/well, and the plate was incubated at room temperature for 5 min, and then the stop buffer (Solarbio, Cat #: C1058) was added at 100 μL/well to stop the reaction.

The target of test [3] is T3, mouse Siglec-15-his protein (Acrobiosystems, Cat #: SG5-M52H7) (mouse).
T3 construct: Bought protein; also called mouse Siglec-15 protein
Nature of the test: ELISA, coated mouse Siglec-15-his. The method, then: as §1, with “[…] mouse” for “g/mL cynomolgus monkey”, “#: SG5-M52H7)” for “#: SG5-C52H6)”, “100 μL/well” for “100 µL/well”, “Jackson, Cat:” for “Jackson, Cat #:”, “(Biopanda, Cat:” for “(Biopanda, Cat #:”

Values joined by “and” are separate entries in the source; they are usually repeats but may differ in a detail not shown here. Equal entries are not always repeated.

B1: PR301285 (antibody, human IgG1, kappa, V domains shown)
VH: QVQLQESGPGLVKPSETLSLTCTVSGGSMISYYWSWLRQPPGKGLEWIGYIYYSGNTNYNPSLKSRITIAVDTSKNQFSLKLNSVTAADTAVYYCARERELHPYYFDYWGQGTLVTVSS
VL: DIQLTQSPSFLSASVGDRVTITCRASQGIDNYLAWYQQKPGKAPKVLIYAASTLQSGVPSRFSGSGSGTEFTLTISSLQPEDFATYYCQQLNSYPLTFGGGTKVEIKR
Consider B1, for which, in test [1], the binding result is recorded as “no binding (tested: 100 nM)”. Moreover, in test [2], the EC50 stood at 0.038 nM.

B2: PR300066 (Tab) (antibody, human IgG1, kappa, V domains shown)
VH: QVQLQQPGAELVKPGASVKMSCKASGYTFTSYWITWVIQRPGQGLEWIGDIYCGSDTMHYNEKFKNKATLTVDTSSSTAYMQLSSLTSEDSAVYYCARWWDYGSSYDYFDYWGQGTTLTVSS
VL: DIKMTQSPSSMYASLGERVTITCKASQDINSYLSWFQQKPGKSPKTLIYRANRLVDGVPSRFSGSGSGQDYSLTISSLEYEDMGIYYCLQYDEFPYTFGGGTKLEIKR
notes: variable region from clone 5G12 of WO 2018/057735A1, on human IgG1/kappa constant regions; also called 5G12
In the case of B2, in test [1], the binding result is “no binding (tested: 100 nM)”. Further, the EC50 in test [2] was 0.025 nM and 0.012 nM; in test [3], 0.019 nM and 0.023 nM.

B3: PR301289 (antibody, human IgG1, kappa, V domains shown)
VH: QVQLVQSGAEVKKPGASVKVSCRASGYTFTSYDINWVRQATGQGLEWMGWMNPHSGDTGYAQNFQGRVTMTWNTSISTAYMELSSLRSEDTAVYYCARRRVGVYYYGMDVWGQGTTVTVSS
VL: ENVLTQSPGTLSLSPGERATLSCRASQSVSSSYFGWYQQKPGQAPRLLIYGASSRATGIPDRFSGSGSGTDFTLTISRLEPEDFAVYYCQQYGSSPITFGQGTRLEIKR
notes: Parent of the PTM variants PR301289-1 and -2
For B3, the binding result in test [1] is recorded as “no binding (tested: 100 nM)”. The EC50 in test [2] turned out to be 0.104 nM; in test [3], 0.036 nM.

B4: PR301286 (antibody, human IgG1, kappa, V domains shown)
VH: QVQLVESGGGVVQPGKSLRLSCAASGFTFSSYGMHWVRQAPGKGLEWVAVIWIDGSNRYYAASVKGRFTISRDNSKNTLYLQMNSLRAEDTAVYYCTRGYGDYAYVMDVWGQGASVTVSS
VL: DIVMTQSPLSLPVTPGEPASISCRSSQSLLPGNGYNYLDWYLQKPGQSPQLLIYLGSNRASGVPDRFSGSGSGTDFTLKISRVEAEDVGIYYCMQALQSPLTFGGGTKVEIKR
notes: Parent of the PTM variants PR301286-1, -3, -5, -6, -7
With B4, in test [1], the binding result is listed as “no binding (tested: 100 nM)”. For the same molecule, the EC50 is 0.09 nM in test [2] and 0.051 nM in test [3].

Broadly, the EC50 is the concentration needed to bring the measured effect to its halfway point.
